{
  "source": "patent US5851983A",
  "about": "“Elastase inhibitory polypeptide and process for production thereof by recombinant gene technology” (Teijin Limited, priority 1987, dated 1998)",
  "key": {"[1]": {"target": "T1, polymorphonuclear leucocyte elastase from human sputum (Homo sapiens, UniProt P08246)", "T1 construct": "Polymorphonuclear leukocyte elastase from human sputum (EPC Co; Funakoshi Yakuhin); purchased EPC Co. (via Funakoshi Yakuhin); host or cells: human sputum", "T1 sequence (P08246 30-267)": "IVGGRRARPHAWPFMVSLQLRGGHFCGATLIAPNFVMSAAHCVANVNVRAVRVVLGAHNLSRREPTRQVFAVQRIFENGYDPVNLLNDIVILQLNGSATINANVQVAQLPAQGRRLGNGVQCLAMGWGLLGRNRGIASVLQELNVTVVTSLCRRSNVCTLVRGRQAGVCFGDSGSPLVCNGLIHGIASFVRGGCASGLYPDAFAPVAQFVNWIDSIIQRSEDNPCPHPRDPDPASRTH", "test": "Simultaneous treatment with healthy human saliva and elastase (Examples 28, 29)", "format": "in vitro ADME", "conditions": "37° C.", "protocol": "(1) Healthy human saliva was ultra-filtered through a 0.22 μm filter (Millex GS, Millipore), and to the filtered saliva were added SLPI and polymorphonuclear leucocyte elastase from human sputum (EPC, Funakoshi Yakuhin) to a final concentration of 50 μM respectively. The mixture was incubated at 37° C., samples were taken as time elapsed, and analyzed by SDS-PAGE as described in Example 27.\n(2) Next, the band J was transferred to a membrane as described in Example 27, and N-terminal amino acid sequence was analyzed.\n(1) According to the same procedure as described in Example 28, to healthy human saliva were dissolved SLPI and polymorphonuclear leucocyte elastase from human sputum to final concentrations of 50 μM and 100 μM respectively, and the mixture was incubated at 37° C. Samples were taken as time elapsed, and analyzed by SDS-PAGE.\n(2) Next, N-terminal amino acid sequence of the band M was analyzed as described in Example 27."}, "[2]": {"target": "T2, polymorphonuclear leukocyte elastase from human sputum (Homo sapiens, UniProt P08246)", "T2 construct": "Polymorphonuclear leukocyte elastase from human sputum (EPC Co; Funakoshi Yakuhin); purchased EPC Co. (via Funakoshi Yakuhin); host or cells: human sputum", "T2 sequence (P08246 30-267)": "T1 sequence (P08246 30-267)", "test": "Thermal stability (Example 14)", "format": "physicochemical", "conditions": "50 mM Tris-HCl (pH 7.8), 50° C. for 2 hours", "protocol": "After a solution of an active-type (Asn^55 -Ala^107) SLPI fragment polypeptide in 50 mM Tris-HCl (pH 7.8) was treated at 50° C. for 2 hours, the inhibitory activity on polymorphonuclear leukocyte elastase from human sputum was measured."}, "[3]": {"test": "Partial hydrolysis with healthy human saliva (Examples 15, 16)", "format": "in vitro ADME", "conditions": "37° C.", "protocol": "Healthy human saliva was filtered through a 0.22 μm filter (Milex GS, Milipore), and in the filtrate was dissolved 1 mg/ml of the SLPI prepared in Reference Example 1. The mixture was then incubated at 37° C. for 30 days. As a control, the SLPI was dissolved in physiological saline (Physisalz; Fuso Yakuhin Kogyo), and the mixture was incubated at 37° C. for 30 days.\nWith an elapse of time, samples were taken and to each sample were added a Tris-HCl buffer (pH 6.8), SDS, 2-mercaptoethamel and glycerol, to final concentration of 60 mM, 2% by weight, 4% by weight and 10% by weight, respectively, and the mixture was subjected to an SDS-PAGE (U.K. Laemmli, Nature, 227, 680, 1970). The gel after electrophoresis was stained with Coomussie Brilliant Blue.\nNext, polypeptides in the polyacrylamide gel thus obtained were electrically transferred to a membrane (Immobilon; Milipore) using a Milli Blot-SDE apparatus. After the transfer, the membrane was stained with 0.1% by weight of Coomassie Blue in 40% by weight methanol/1% by weight acetic acid, and washed with water. Then, after air drying, the bands b, c, d and e were excised, and for each band, the PTH-amino acids were cleaved from the N-terminus with an Applied Biosystems Protein Sequences (Applied Biosystems; 470A) and analysed with a PTH analyser (Applied Biosystems, 120A) to determine an amino acid sequence for 10 amino acids from the N-terminus.\nAccording to the same procedure as described in Example 15, (Asn^55 -Ala^107) SLPI prepared in Example 11 was treated with healthy human saliva at 37° C., and a result is shown in FIG. 13. […] After 12 hours, a new band g (MW about 5,500) appeared.\nNext, according to the same procedure as described in Example 15, the band g was electrically transferred to a membrane and N-terminal amino acid sequence was analyzed. […] The 6th amino acid could not be determined. The N-terminal amino acid sequence of the band g corresponds to an amino acid sequence starting from Arg^59 of SLPI."}, "[4]": {"target": "T1, polymorphonuclear leucocyte elastase from human sputum", "test": "Effect of serum albumin on elastase inhibitory activity (Example 13)", "format": "biochemical", "conditions": "in the presence of 0.8% or 8% calf serum albumin", "protocol": "The inhibitory activity of a active-form (Asn^55 -Ala^107) SLPI fragment polypeptide on polymorphonuclear leucocyte elastase from human sputum was measured by the same procedure as in Example 12 in the presence of 0.8% or 8% calf serum albumin."}},
  "data": [
    {"substance": "(Asn^55 -Ala^107) SLPI: polypeptide having an amino acid sequence starting with the 55th Asn and ending at the 107th Ala of SLPI (NPTRRKPGKCPVTYGQCLMLNPPNFCEMDGQCKRDLKCCMGMCGKSCVSPVKA)", "values": [
      {"measurement": "SDS-PAGE bands on simultaneous treatment with healthy human saliva and elastase", "setting": "[1]; 50 μM polypeptide, elastase 50 μM (Example 28) or 100 μM (Example 29)", "value": "after 48 hours, almost only band M was observed"},
      {"measurement": "cleavage site on simultaneous treatment with healthy human saliva and elastase", "setting": "[1]; N-terminal sequencing of SDS-PAGE band", "value": "cleaved at the site between Thr^57 -Arg^58"},
      {"measurement": "elastase inhibitory activity after heat treatment (thermal stability)", "setting": "[2]", "value": "maintained at the same level"},
      {"measurement": "SDS-PAGE band after incubation in physiological saline without saliva", "setting": "[3]; 96 hours", "value": "only the band f having an MW of about 5,800 remained"},
      {"measurement": "SDS-PAGE bands after incubation in healthy human saliva", "setting": "[3]; 96 hours, band f = starting polypeptide, band g MW about 5,500", "value": "only the band g remained after 96 hours of incubation"},
      {"measurement": "cleavage sites in healthy human saliva", "setting": "[3]; SDS-PAGE bands, N-terminal sequencing", "value": "cleaved at a site between Arg^58 -Arg^59"},
      {"measurement": "effect of calf serum albumin on elastase inhibitory activity", "setting": "[4]", "value": "had no effect on its activity"}
    ]}
  ]
}
